Experimental data published in PMC6588284 (Biochemistry, 2019).
Values belong to the molecule of their own block, whether it stands above or below them.

How the values were obtained:
[1] = molecular target: KvAPΔCTD+Lys (Aeropyrum pernix); assay: cross-linking
[2] = molecular target: SUMO CTD fusion with the native C247 residue (Aeropyrum pernix); assay: cross-linking
[3] = molecular target: SUMO-GCN4 fusion protein (Aeropyrum pernix | not stated); assay: SEC
[4] = molecular target: SUMO-GCN4 fusion protein (Aeropyrum pernix | not stated); assay: cross-linking
[5] = molecular target: KvAP-C247S (Aeropyrum pernix); assay: cross-linking
[6] = molecular target: KvAP-C247S (Aeropyrum pernix); assay: cross-linking; remark: listed apart in the source
[7] = molecular target: the molecule itself; assay: SEC

percent cross-linked (tetramer) [1]: 100% | percent tetramer at 2 hours [1]: 4% | stoichiometry N [1]: 4 | tetramer yield relative to the full length protein [1]: 0.5
Molecule: KvAPΔCTD+Lys (domain or fragment)

stoichiometry N [3]: 4 | stoichiometry N [4]: 4
Molecule: SUMO-GCN4 fusion protein

stoichiometry N [5]: 4
Molecule: KvAP-C247S (natural protein)

The remaining lines, values behind:

Molecule: SUMO CTD fusion with the native C247 residue (domain or fragment)
stoichiometry N [2]: 2

B1: S6-CTD peptide (peptide)
peptide: CVTATTVGYGDVVPATPIGKVIGIAVMLTGISALTLLIGTVSNMFQKILVGEPEPSSSPAKLAEMVSSMSEEEFEEFVRTLKNLRRLENSMKGS
percent decrease in the KvAP tetramer yield [6]: 60%

B2: SUMO-CTD fusion protein (domain or fragment, Aeropyrum pernix)
chain: LVGEPEPSSSPAKLAEMVSSMSEEEFEEFVRTLKNLRRLENSMK
stoichiometry N [7]: 2
